{
  "source": "FireProtDB (doi:10.1021/bi0027783)",
  "settings": "Allium sativum, reversible: yes, whole UniProt chain shown; for denaturant m value / denaturant midpoint (higher = more stable) / unfolding free energy: GdnHCl",
  "key": {"[1]": {"settings": "pH 5, Thermal, DSC, citrate phosphate 20 mM"}, "[2]": {"settings": "pH 5.5, Thermal, DSC, citrate phosphate 20 mM"}, "[3]": {"settings": "pH 5.8, Thermal, DSC, citrate phosphate 20 mM"}, "[4]": {"settings": "pH 6, Thermal, DSC, citrate phosphate 20 mM"}, "[5]": {"settings": "pH 7.5, 50.7 °C, Thermal, CD, PBS 20 mM"}, "[6]": {"settings": "pH 7.5, 53.3 °C, Thermal, CD, PBS 20 mM"}, "[7]": {"settings": "pH 7.5, 55.7 °C, Thermal, CD, PBS 20 mM"}, "[8]": {"settings": "pH 7.5, 56.3 °C, Thermal, CD, PBS 20 mM"}, "[9]": {"settings": "pH 7.5, 60.8 °C, Thermal, CD, PBS 20 mM"}, "[10]": {"settings": "pH 7.5, 64.2 °C, Thermal, CD, PBS 20 mM"}, "[11]": {"settings": "pH 7.5, 66.4 °C, Thermal, CD, PBS 20 mM"}},
  "note": "“And” between values parts separate entries of the source, which are not always exact repeats. Identical values can stand only once.",
  "data": [
    {"sequence": "RNILMNGEGLYAGQSLDVEPYHFIMQEDCN [wild type]", "values": [
      {"measurement": "Tm", "setting": "[1]", "result": 75.5, "unit": "°C"},
      {"measurement": "unfolding enthalpy (van 't Hoff)", "setting": "[1]", "result": 132, "unit": "kcal/mol"},
      {"measurement": "Tm", "setting": "[2]", "result": 74.6, "unit": "°C"},
      {"measurement": "unfolding enthalpy (van 't Hoff)", "setting": "[2]", "result": 130, "unit": "kcal/mol"},
      {"measurement": "Tm", "setting": "[3]", "result": 73.9, "unit": "°C"},
      {"measurement": "unfolding enthalpy (van 't Hoff)", "setting": "[3]", "result": 128, "unit": "kcal/mol"},
      {"measurement": "Tm", "setting": "[4]", "result": 73.1, "unit": "°C"},
      {"measurement": "unfolding enthalpy (van 't Hoff)", "setting": "[4]", "result": 125, "unit": "kcal/mol"},
      {"measurement": "Tm", "setting": "pH 7, Thermal, DSC, PBS 20 mM", "result": 70.9, "unit": "°C"},
      {"measurement": "unfolding enthalpy (van 't Hoff)", "setting": "pH 7, Thermal, DSC, PBS 20 mM", "result": 118, "unit": "kcal/mol"},
      {"measurement": "denaturant m value", "setting": "pH 7.5, 10 °C, CD, PBS 20 mM", "result": 2.61, "unit": "kcal/mol/M"},
      {"measurement": "denaturant midpoint (higher = more stable)", "setting": "pH 7.5, 10 °C, CD, PBS 20 mM", "result": 4.9, "unit": "M"},
      {"measurement": "unfolding free energy", "setting": "pH 7.5, 10 °C, CD, PBS 20 mM", "result": 12.8, "unit": "kcal/mol"},
      {"measurement": "denaturant m value", "setting": "pH 7.5, 15 °C, CD, PBS 20 mM", "result": 2.23, "unit": "kcal/mol/M"},
      {"measurement": "denaturant midpoint (higher = more stable)", "setting": "pH 7.5, 15 °C, CD, PBS 20 mM", "result": 5.84, "unit": "M"},
      {"measurement": "unfolding free energy", "setting": "pH 7.5, 15 °C, CD, PBS 20 mM", "result": 13, "unit": "kcal/mol"},
      {"measurement": "denaturant m value", "setting": "pH 7.5, 20 °C, CD, PBS 20 mM", "result": 2.25, "unit": "kcal/mol/M"},
      {"measurement": "denaturant midpoint (higher = more stable)", "setting": "pH 7.5, 20 °C, CD, PBS 20 mM", "result": 5.84, "unit": "M"},
      {"measurement": "unfolding free energy", "setting": "pH 7.5, 20 °C, CD, PBS 20 mM", "result": 13.1, "unit": "kcal/mol"},
      {"measurement": "denaturant m value", "setting": "pH 7.5, 25 °C, CD, PBS 20 mM", "result": 2.3, "unit": "kcal/mol/M"},
      {"measurement": "denaturant midpoint (higher = more stable)", "setting": "pH 7.5, 25 °C, CD, PBS 20 mM", "result": 5.6, "unit": "M"},
      {"measurement": "unfolding free energy", "setting": "pH 7.5, 25 °C, CD, PBS 20 mM", "result": 12.9, "unit": "kcal/mol"},
      {"measurement": "denaturant m value", "setting": "pH 7.5, 30 °C, CD, PBS 20 mM", "result": 2.64, "unit": "kcal/mol/M"},
      {"measurement": "denaturant midpoint (higher = more stable)", "setting": "pH 7.5, 30 °C, CD, PBS 20 mM", "result": 4.62, "unit": "M"},
      {"measurement": "unfolding free energy", "setting": "pH 7.5, 30 °C, CD, PBS 20 mM", "result": 12.2, "unit": "kcal/mol"},
      {"measurement": "denaturant m value", "setting": "pH 7.5, 35 °C, CD, PBS 20 mM", "result": 3.21, "unit": "kcal/mol/M"},
      {"measurement": "denaturant midpoint (higher = more stable)", "setting": "pH 7.5, 35 °C, CD, PBS 20 mM", "result": 3.4, "unit": "M"},
      {"measurement": "unfolding free energy", "setting": "pH 7.5, 35 °C, CD, PBS 20 mM", "result": 10.9, "unit": "kcal/mol"},
      {"measurement": "denaturant m value", "setting": "pH 7.5, 40 °C, CD, PBS 20 mM", "result": 4, "unit": "kcal/mol/M"},
      {"measurement": "denaturant midpoint (higher = more stable)", "setting": "pH 7.5, 40 °C, CD, PBS 20 mM", "result": 2.41, "unit": "M"},
      {"measurement": "unfolding free energy", "setting": "pH 7.5, 40 °C, CD, PBS 20 mM", "result": 9.65, "unit": "kcal/mol"},
      {"measurement": "denaturant m value", "setting": "pH 7.5, 45 °C, CD, PBS 20 mM", "result": 3.89, "unit": "kcal/mol/M"},
      {"measurement": "denaturant midpoint (higher = more stable)", "setting": "pH 7.5, 45 °C, CD, PBS 20 mM", "result": 1.99, "unit": "M"},
      {"measurement": "unfolding free energy", "setting": "pH 7.5, 45 °C, CD, PBS 20 mM", "result": 7.74, "unit": "kcal/mol"},
      {"measurement": "denaturant m value", "setting": "pH 7.5, 50 °C, CD, PBS 20 mM", "result": 3.83, "unit": "kcal/mol/M"},
      {"measurement": "denaturant midpoint (higher = more stable)", "setting": "pH 7.5, 50 °C, CD, PBS 20 mM", "result": 1.5, "unit": "M"},
      {"measurement": "unfolding free energy", "setting": "pH 7.5, 50 °C, CD, PBS 20 mM", "result": 5.75, "unit": "kcal/mol"},
      {"measurement": "heat capacity change of unfolding", "setting": "[5]", "result": 3.64, "unit": "kcal/mol/K"},
      {"measurement": "unfolding enthalpy (van 't Hoff)", "setting": "[5]", "result": 115, "unit": "kcal/mol"},
      {"measurement": "heat capacity change of unfolding", "setting": "[6]", "result": 3.59, "unit": "kcal/mol/K"},
      {"measurement": "unfolding enthalpy (van 't Hoff)", "setting": "[6]", "result": 118, "unit": "kcal/mol"},
      {"measurement": "heat capacity change of unfolding", "setting": "[7]", "result": 3.5, "unit": "kcal/mol/K"},
      {"measurement": "unfolding enthalpy (van 't Hoff)", "setting": "[7]", "result": 124, "unit": "kcal/mol"},
      {"measurement": "heat capacity change of unfolding", "setting": "[8]", "result": 3.4, "unit": "kcal/mol/K"},
      {"measurement": "unfolding enthalpy (van 't Hoff)", "setting": "[8]", "result": 136, "unit": "kcal/mol"},
      {"measurement": "heat capacity change of unfolding", "setting": "[9]", "result": 3.32, "unit": "kcal/mol/K"},
      {"measurement": "unfolding enthalpy (van 't Hoff)", "setting": "[9]", "result": 142, "unit": "kcal/mol"},
      {"measurement": "heat capacity change of unfolding", "setting": "[10]", "result": 3.25, "unit": "kcal/mol/K"},
      {"measurement": "unfolding enthalpy (van 't Hoff)", "setting": "[10]", "result": 153, "unit": "kcal/mol"},
      {"measurement": "heat capacity change of unfolding", "setting": "[11]", "result": 3.2, "unit": "kcal/mol/K"},
      {"measurement": "unfolding enthalpy (van 't Hoff)", "setting": "[11]", "result": 173, "unit": "kcal/mol"},
      {"measurement": "unfolding enthalpy (calorimetric)", "setting": "pH 7.5, Thermal, DSC, PBS 20 mM", "result": "96.4 kcal/mol and 116 kcal/mol and 118 kcal/mol"},
      {"measurement": "Tm", "setting": "pH 8, Thermal, DSC, PBS 20 mM", "result": 69.2, "unit": "°C"},
      {"measurement": "unfolding enthalpy (van 't Hoff)", "setting": "pH 8, Thermal, DSC, PBS 20 mM", "result": 113, "unit": "kcal/mol"}
    ]}
  ]
}
